Measured values as given in the supplement of paper PMC11316812.
± gives the standard deviation of the averaged measurements.

Key:
hTERT-HMEC = assay: percentage of EdU-negative (G0-arrested) nuclei per well, 72 h; higher = more G0 arrest; settings: reference: sequence is the full UniProt precursor, the tested protein was the secreted form or ectodomain
MCF7 = assay: as above; settings: reference: sequence is the full UniProt precursor, the tested protein was the secreted form or ectodomain
[1] = protein concentration 0.02175 µM
[2] = protein concentration 0.2175 µM
[3] = protein concentration 0.0191325 µM
[4] = protein concentration 0.191325 µM
[5] = protein concentration 0.0175 µM
[6] = protein concentration 0.01475 µM
[7] = protein concentration 0.1475 µM
[8] = protein concentration 0.0225 µM
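Note: secreted proteins added to cultured cells, EdU pulse at the end, nuclei found by Hoechst imaging, EdU status from nuclear versus surrounding ring intensity ratio, PBS as neutral control.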

MLLPKKMKLLLFLVSQMAILALFFHMYSHNISSLSMKAQPERMHVLVLSSWRSGSSFVGQLFGQHPDVFYLMEPAWHVWMTFKQSTAWMLHMAVRDLIRAVFLCDMSVFDAYMEPGPRRQSSLFQWENSRALCSAPACDIIPQDEIIPRAHCRLLCSQQPFEVVEKACRSYSHVVLKEVRFFNLQSLYPLLKDPSLNLHIVHLVRDPRAVFRSRERTKGDLMIDSRIVMGQHEQKLKKEDQPYYVMQVICQSQLEIYKTIQSLPKALQERYLLVRYEDLARAPVAQTSRMYEFVGLEFLPHLQTWVHNITRGKGMGDHAFHTNARDALNVSQAWRWSLPYEKVSRLQKACGDAMNLLGYRHVRSEQEQRNLLLDLLSTWTVPEQIH [Q8NCG5]
percentage of EdU-negative (hTERT-HMEC; protein concentration 0.006 µM): 5.16 ± 0.29% | percentage of EdU-negative (hTERT-HMEC; protein concentration 0.06 µM): 4.77 ± 0.11% | percentage of EdU-negative (MCF7; protein concentration 0.006 µM): 26 ± 0.23% | percentage of EdU-negative (MCF7; protein concentration 0.06 µM): 29.1 ± 1.1%

MLLPLLLLLPMCWAVEVKRPRGVSLTNHHFYDESKPFTCLDGSATIPFDQVNDDYCDCKDGSDEPGTAACPNGSFHCTNTGYKPLYIPSNRVNDGVCDCCDGTDEYNSGVICENTCKEKGRKERESLQQMAEVTREGFRLKKILIEDWKKAREEKQKKLIELQAGKKSLEDQVEMLRTVKEEAEKPEREAKEQHQKLWEEQLAAAKAQQEQELAADAFKELDDDMDGTVSVTELQTHPELDTDGDGALSEAEAQALLSGDTQTDATSFYDRVWAAIRDKYRSEALPTDLPAPSAPDLTEPKEEQPPVPSSPTEEEEEEEEEEEEEAEEEEEEEDSEEAPPPLSPPQPASPAEEDKMPPYDEQTQAFIDAAQEARNKFEEAERSLKDMEESIRNLEQEISFDFGPNGEFAYLYSQCYELTTNEYVYRLCPFKLVSQKPKLGGSPTSLGTWGSWIGPDHDKFSAMKYEQGTGCWQGPNRSTTVRLLCGKETMVTSTTEPSRCEYLMELMTPAACPEPPPEAPTEDDHDEL
percentage of EdU-negative (hTERT-HMEC; [1]): 5.19 ± 1.2% | percentage of EdU-negative (hTERT-HMEC; [2]): 5.7 ± 0.68% | percentage of EdU-negative (MCF7; [1]): 27.5 ± 0.87% | percentage of EdU-negative (MCF7; [2]): 24.9 ± 0.62%

MLLPWATSAPGLAWGPLVLGLFGLLAASQPQAVPPYASENQTCRDQEKEYYEPQHRICCSRCPPGTYVSAKCSRIRDTVCATCAENSYNEHWNYLTICQLCRPCDPVMGLEEIAPCTSKRKTQCRCQPGMFCAAWALECTHCELLSDCPPGTEAELKDEVGKGNNHCVPCKAGHFQNTSSPSARCQPHTRCENQGLVEAAPGTAQSDTTCKNPLEPLPPEMSGTMLMLAVLLPLAFFLLLATVFSCIWKSHPSLCRKLGSLLKRRPQGEGPNPVAGSWEPPKAHPYFPDLVQPLLPISGDVSPVSTGLPAAPVLEAGVPQQQSPLDLTREPQLEPGEQSQVAHGTNGIHVTGGSMTITGNIYIYNGPVLGGPPGPGDLPATPEPPYPIPEEGDPGPPGLSTPHQEDGKAWHLAETEHCGATPSNRGPRNQFITHD
percentage of EdU-negative (hTERT-HMEC; [3]): 5.06 ± 0.25% | percentage of EdU-negative (hTERT-HMEC; [4]): 5.55 ± 1.9% | percentage of EdU-negative (MCF7; [3]): 26.7 ± 0.76% | percentage of EdU-negative (MCF7; [4]): 27.3 ± 0.76%

MLLRGVLLALQALQLAGALDLPAGSCAFEESTCGFDSVLASLPWILNEEGHYIYVDTSFGKQGEKAVLLSPDLQAEEWSCLRLVYQITTSSESLSDPSQLNLYMRFEDESFDRLLWSAKEPSDSWLIASLDLQNSSKKFKILIEGVLGQGNTASIALFEIKMTTGYCIECDFEENHLCGFVNRWNPNVNWFVGGGSIRNVHSILPQDHTFKSELGHYMYVDSVYVKHFQEVAQLISPLTTAPMAGCLSFYYQIQQGNDNVFSLYTRDVAGLYEEIWKADRPGNAAWNLAEVEFSAPYPMEVIFEVAFNGPKGGYVALDDISFSPVHCQNQTELLFSAVEASCNFEQDLCNFYQDKEGPGWTRVKVKPNMYRAGDHTTGLGYYLLANTKFTSQPGYIGRLYGPSLPGNLQYCLRFHYAIYGFLKMSDTLAVYIFEENHVVQEKIWSVLESPRGVWMQAEITFKKPMPTKVVFMSLCKSFWDCGLVALDDITIQLGSCSSSEKLPPPPGECTFEQDECTFTQEKRNRSSWHRRRGETPTSYTGPKGDHTTGVGYYMYIEASHMVYGQKARLLSRPLRGVSGKHCLTFFYHMYGGGTGLLSVYLKKEEDSEESLLWRRRGEQSISWLRALIEYSCERQHQIIFEAIRGVSIRSDIAIDDVKFQAGPCGEMEDTTQQSSGYSEDLNEIEY [Q7Z304]
percentage of EdU-negative (hTERT-HMEC; [5]): 5.68 ± 0.56% | percentage of EdU-negative (hTERT-HMEC; protein concentration 0.175 µM): 8.11 ± 0.92% | percentage of EdU-negative (MCF7; [5]): 28.1 ± 1.3% | percentage of EdU-negative (MCF7; protein concentration 0.175 µM): 31.9 ± 1.8%

MLLRLLLAWAAAGPTLGQDPWAAEPRAACGPSSCYALFPRRRTFLEAWRACRELGGDLATPRTPEEAQRVDSLVGAGPASRLLWIGLQRQARQCQLQRPLRGFTWTTGDQDTAFTNWAQPASGGPCPAQRCVALEASGEHRWLEGSCTLAVDGYLCQFGFEGACPALQDEAGQAGPAVYTTPFHLVSTEFEWLPFGSVAAVQCQAGRGASLLCVKQPEGGVGWSRAGPLCLGTGCSPDNGGCEHECVEEVDGHVSCRCTEGFRLAADGRSCEDPCAQAPCEQQCEPGGPQGYSCHCRLGFRPAEDDPHRCVDTDECQIAGVCQQMCVNYVGGFECYCSEGHELEADGISCSPAGAMGAQASQDLGDELLDDGEDEEDEDEAWKAFNGGWTEMPGILWMEPTQPPDFALAYRPSFPEDREPQIPYPEPTWPPPLSAPRVPYHSSVLSVTRPVVVSATHPTLPSAHQPPVIPATHPALSRDHQIPVIAANYPDLPSAYQPGILSVSHSAQPPAHQPPMISTKYPELFPAHQSPMFPDTRVAGTQTTTHLPGIPPNHAPLVTTLGAQLPPQAPDALVLRTQATQLPIIPTAQPSLTTTSRSPVSPAHQISVPAATQPAALPTLLPSQSPTNQTSPISPTHPHSKAPQIPREDGPSPKLALWLPSPAPTAAPTALGEAGLAEHSQRDDRWLLVALLVPTCVFLVVLLALGIVYCTRCGPHAPNKRITDCYRWVIHAGSKSPTEPMPPRGSLTGVQTCRTSV [Q9HCU0]
percentage of EdU-negative (hTERT-HMEC; [6]): 4.69 ± 0.05% | percentage of EdU-negative (hTERT-HMEC; [7]): 6.87 ± 0.4% | percentage of EdU-negative (MCF7; [6]): 25.7 ± 2.5% | percentage of EdU-negative (MCF7; [7]): 27.5 ± 1.9%

MLLSVPLLLGLLGLAVAEPAVYFKEQFLDGDGWTSRWIESKHKSDFGKFVLSSGKFYGDEEKDKGLQTSQDARFYALSASFEPFSNKGQTLVVQFTVKHEQNIDCGGGYVKLFPNSLDQTDMHGDSEYNIMFGPDICGPGTKKVHVIFNYKGKNVLINKDIRCKDDEFTHLYTLIVRPDNTYEVKIDNSQVESGSLEDDWDFLPPKKIKDPDASKPEDWDERAKIDDPTDSKPEDWDKPEHIPDPDAKKPEDWDEEMDGEWEPPVIQNPEYKGEWKPRQIDNPDYKGTWIHPEIDNPEYSPDPSIYAYDNFGVLGLDLWQVKSGTIFDNFLITNDEAYAEEFGNETWGVTKAAEKQMKDKQDEEQRLKEEEEDKKRKEEEEAEDKEDDEDKDEDEEDEEDKEEDEEEDVPGQAKDEL
percentage of EdU-negative (hTERT-HMEC; [8]): 5.2 ± 0.44% | percentage of EdU-negative (hTERT-HMEC; protein concentration 0.225 µM): 15.5 ± 2.6% | percentage of EdU-negative (MCF7; [8]): 21.8 ± 0.44% | percentage of EdU-negative (MCF7; protein concentration 0.225 µM): 28.2 ± 2.5%
